This experiment addresses T1, CRFR2β (CRF receptor 2 beta) (human, UniProt Q60748 35-411 (mouse entry)).
T1 construct: also called CRFR2b; CRFRIIβ
The experiment in a line: 125I-BMP7 tracer (5x10^5 cpm) with or without unlabeled BMP7, Ni-NTA pull-down, gamma counting; CRFR2β as control receptor. Here is the method:
In a particular example, BMPRII, ALK3 and CRFR2β were incubated with 5×10⁵ cpm ¹²⁵I-BMP7 tracer in the presence or absence of 40 nM unlabeled BMP7 as competitor. BMPRII and ALK3 are type II and type I receptors of BMP7, respectively. CRFR2β is a G-protein coupled receptor with no known affinity for BMP7 and was included as a control. Samples were prepared in triplicate in 1.7 ml eppendorf tubes in a final volume of 1 ml binding buffer (150 mM NaCl, 50 mM Tris (pH 7.5), 0.1% BSA). Binding was performed for […] at room temperature. After an initial 60 minutes of binding, 20 μl of 50% Ni—NTA resin (Qiagen) was added to each sample and allowed to bind for the balance of the […] incubation period. Complexes were precipitated by centrifugation and washed three times in 1 ml binding buffer. After the final wash, bound ¹²⁵I-BMP7 tracer was quantified in a gamma counter. BMP7 was iodinated using a modified Cloramine-T procedure (see, e.g., Lawler et al., J. Neurosci. Meth., 49:141-53, 1993).

T1 sequence (Q60748 other isoform, or with tags, fused parts or gaps): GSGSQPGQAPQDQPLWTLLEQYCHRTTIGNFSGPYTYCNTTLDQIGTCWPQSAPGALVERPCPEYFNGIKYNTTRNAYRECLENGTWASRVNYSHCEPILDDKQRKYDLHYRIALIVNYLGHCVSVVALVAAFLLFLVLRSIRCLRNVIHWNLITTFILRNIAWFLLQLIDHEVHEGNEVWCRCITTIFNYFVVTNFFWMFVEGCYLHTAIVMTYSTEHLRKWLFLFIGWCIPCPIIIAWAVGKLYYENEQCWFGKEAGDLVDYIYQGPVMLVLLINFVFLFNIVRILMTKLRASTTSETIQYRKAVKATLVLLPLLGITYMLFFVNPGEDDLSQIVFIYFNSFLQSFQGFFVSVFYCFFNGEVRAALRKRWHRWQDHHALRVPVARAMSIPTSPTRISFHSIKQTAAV

B1: BMP7 (ligand, UniProt P18075 293-431, looked up)
chain: STGSKQRSQNRSKTPKNQEALRMANVAENSSSDQRQACKKHELYVSFRDLGWQDWIIAPEGYAAYYCEGECAFPLNSYMNATNHAIVQTLVHFINPETVPKPCCAPTQLNAISVLYFDDSSNVILKKYRNMVVRACGCH
modifications: 125I-iodinated by a modified Chloramine-T procedure (tracer); unlabeled form used as competitor
notes: also called unlabeled BMP7
B1: the binding result is given as “no binding (tested: 40 nM unlabeled BMP7)”.

For the origin of these results see US20060211087A1 (SALK INSTITUTE FOR BIOLOGICAL STUDIES, published 2006).
